The source of these data is patent US5882914, “Nucleic acids encoding the hypoxia inducible factor-1” (The Johns Hopkins University School of Medicine).

Series [1] has as its target T1, HIF-1 (HIF-1alpha/HIF-1beta ARNT heterodimer) (Homo sapiens, UniProt Q16665;P27540 Q16665:1-826,P27540:2-789). In words: EMSA; similar to W18; competed by W18 not M18. The settings on record: tags: none; 5' GATC overhang added. As for the experimental part: (§1) The sense strand sequence of the W18 and M18 oligonucleotides was as given above. HIF-1 was partially purified from 50 liters of CoCl_2-treated HeLa cells by crude nuclear extract preparation, DEAE-Sepharose chromatography, MonoQ fast protein liquid chromatography, and DNA affinity chromatography. Incubations with crude nuclear extracts and partially purified HIF-I contained 100 and 1 ng of denatured calf thymus DNA, respectively. Competition experiments were performed with 5 ng of unlabeled W18 or MI8 oligonucleotide.
EMSA was also performed with a preparation of HIF-1 from CoCl_2-treated HeLa cells that was purified approximately 600-fold by DEAE-cellulose, MonoQ, and DNA affinity chromatography. Each probe bound HIF-1 in a manner that was qualitatively and quantitatively similar to the complex formed with W18. The binding of HIF-1 to these probes was sequence-specific as it could be competed by an excess of unlabeled W18 but not by mutant oligonucleotide M18, containing a 3-nucleotide substitution previously shown to eliminate HIF-1 binding and hypoxia-inducible enhancer function. Similar results were obtained when competition experiments involving W18 and M18 were performed with crude nuclear extract from hypoxic Hep3B cells. […] Given the biased method of ascertainment, it is possible that HIF-1 may recognize other sequences not represented by this consensus. In addition to the 6 HIF-1 sites from glycolytic genes, the sequence 5'-CACGTGCT-3' (SEQ ID NO:34) was also present in the hENO1 5'-FS at -786 to -793 (Gialongo et al. (1990) Eur. J. Biochem. 190:567–573) but was not tested for HIF-1 binding. Thus, a total of 7 probable HIF-1 sites were identified in 20.7 kb of nucleotide sequence reported to GenBank for these 5 glycolytic genes. In contrast, no sequences matching the consensus HIF-1 site were identified on either DNA strand within a total of 43.5 kb, comprising the nucleotide sequences of 5 randomly chosen genes, AFP, BUP4, CREB, DHFR, and EPOR (Gibbs et al. (1987) Biochemistry 26;1332–1343; Kurihara et al. (1993) Biochem.

The target of series [2] is T1, HIF-1 (HIF-1alpha/HIF-1beta ARNT …). Kind of series: EMSA; listed among 8 oligonucleotides shown to bind HIF-1 specifically. The conditions noted are these: tags: none; 5' GATC overhang added.
Excerpt: as §1, with “Double-stranded oligonucleotides were synthesized according to the sequences shown in Table 2 except that each oligonucleotide contained at its 5'-end the sequence 5'-GATC-3', which formed a single-stranded 5' overhang when complementary oligonucleotides were annealed. The” for “The”
(§2) EMSA was also performed with a preparation of HIF-1 from CoCl_2-treated HeLa cells that was purified approximately 600-fold by DEAE-cellulose, MonoQ, and DNA affinity chromatography. Each probe bound HIF-1 in a manner that was qualitatively and quantitatively similar to the complex formed with W18. The binding of HIF-1 to these probes was sequence-specific as it could be competed by an excess of unlabeled W18 but not by mutant oligonucleotide M18, containing a 3-nucleotide substitution previously shown to eliminate HIF-1 binding and hypoxia-inducible enhancer function. […]
On the technique in general: A gel shift assay detects complexes by their altered migration in electrophoresis.

Series [3] shares this target. In words: EMSA; buffer Z-100; also UV cross-linking of both subunits, competed by W18 not M18. The conditions noted are these: tags: none; 5' GATC overhang. As for the experimental part:
(§3) Figure 3A: FIG. 3A is an autoradiograph showing gel shift assay analysis of column fractions for HIF-1 DNA binding activity. Nuclear extracts were fractionated by DEAE-Sepharose chromatography, and fractions containing HIF-1 activity were applied to a W18 DNA affinity column. 5 ug of protein were incubated with 0.1 ug of calf thymus DNA for gel shift analysis of crude nuclear extract (Crude NE, lane 1) and HIF-1 active fractions from DEAE-Sepharose columns (DEAE, lane 2). For fractions from the W18 column (lanes 3–13), 1 ul aliquots were incubated with 5 ng of calf thymus DNA. The positions of the two HIF-1 bands, constitutive activity (C), nonspecific activity (NS), and free probe (F) are indicated. FT, flowthrough, 0.25M, 0.5M, 1M, and 2M are fractions eluted with indicated concentration of KCl in buffer Z. Figure 3B: FIG. 3B is an autoradiograph showing sequence-specific DNA binding of the partially purified fractions described in the legend to FIG. 3A. 5 ug aliquots of fractions from the DEAE-Sepharose column were incubated with W18 probe in the presence of no competitor (lane 1), 10-fold (lanes 2 and 5), 50-fold (lanes 3 and 6), or 250-fold (lanes 4 and 7) molar excess of unlabeled W18 (W, lanes 2–4) or M18 (M, lanes 5–7) oligonucleotide.
UV Cross-Linking Analysis. […]

Series [4] has the same target. Kind of series: EMSA; similar to W18; competed by W18 not M18; printed CADGTGCG in table. The conditions noted are these: tags: none; 5' GATC overhang added.
Excerpt: as §1, with “Double-stranded oligonucleotides were synthesized according to the sequences shown in Table 2 except that each oligonucleotide contained at its 5'-end the sequence 5'-GATC-3', which formed a single-stranded 5' overhang when complementary oligonucleotides were annealed. The” for “The”
as §2

Series [5] shares this target. In words: competition; 250-fold excess M18 does not compete; HIF-1 in M18 column flowthrough. The settings on record: tags: none; 5' GATC overhang. How it is done:
as §3

T1 sequence (Q16665 whole entry, chain 1 of 2): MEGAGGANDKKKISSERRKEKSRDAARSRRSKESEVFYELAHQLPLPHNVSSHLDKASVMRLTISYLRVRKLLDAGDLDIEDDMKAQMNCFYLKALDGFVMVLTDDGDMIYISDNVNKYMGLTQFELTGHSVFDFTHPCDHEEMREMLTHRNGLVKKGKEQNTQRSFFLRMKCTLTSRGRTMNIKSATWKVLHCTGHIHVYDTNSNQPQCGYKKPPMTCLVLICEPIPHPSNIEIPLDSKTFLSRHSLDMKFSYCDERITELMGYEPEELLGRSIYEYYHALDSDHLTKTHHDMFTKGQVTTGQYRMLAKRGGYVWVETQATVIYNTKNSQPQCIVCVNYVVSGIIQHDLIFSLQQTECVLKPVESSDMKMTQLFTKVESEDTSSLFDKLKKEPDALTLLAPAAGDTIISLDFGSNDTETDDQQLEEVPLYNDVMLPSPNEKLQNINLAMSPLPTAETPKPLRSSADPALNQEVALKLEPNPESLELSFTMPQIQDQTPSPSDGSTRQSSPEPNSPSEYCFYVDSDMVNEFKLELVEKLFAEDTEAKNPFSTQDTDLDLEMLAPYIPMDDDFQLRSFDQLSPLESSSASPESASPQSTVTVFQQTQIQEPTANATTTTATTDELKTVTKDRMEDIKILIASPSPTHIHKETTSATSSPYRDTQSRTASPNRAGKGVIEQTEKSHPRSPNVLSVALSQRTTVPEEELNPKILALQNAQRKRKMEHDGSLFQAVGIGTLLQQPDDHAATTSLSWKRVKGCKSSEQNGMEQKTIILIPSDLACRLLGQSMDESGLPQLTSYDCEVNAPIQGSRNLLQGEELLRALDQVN
T1 sequence (P27540 2-789, chain 2 of 2): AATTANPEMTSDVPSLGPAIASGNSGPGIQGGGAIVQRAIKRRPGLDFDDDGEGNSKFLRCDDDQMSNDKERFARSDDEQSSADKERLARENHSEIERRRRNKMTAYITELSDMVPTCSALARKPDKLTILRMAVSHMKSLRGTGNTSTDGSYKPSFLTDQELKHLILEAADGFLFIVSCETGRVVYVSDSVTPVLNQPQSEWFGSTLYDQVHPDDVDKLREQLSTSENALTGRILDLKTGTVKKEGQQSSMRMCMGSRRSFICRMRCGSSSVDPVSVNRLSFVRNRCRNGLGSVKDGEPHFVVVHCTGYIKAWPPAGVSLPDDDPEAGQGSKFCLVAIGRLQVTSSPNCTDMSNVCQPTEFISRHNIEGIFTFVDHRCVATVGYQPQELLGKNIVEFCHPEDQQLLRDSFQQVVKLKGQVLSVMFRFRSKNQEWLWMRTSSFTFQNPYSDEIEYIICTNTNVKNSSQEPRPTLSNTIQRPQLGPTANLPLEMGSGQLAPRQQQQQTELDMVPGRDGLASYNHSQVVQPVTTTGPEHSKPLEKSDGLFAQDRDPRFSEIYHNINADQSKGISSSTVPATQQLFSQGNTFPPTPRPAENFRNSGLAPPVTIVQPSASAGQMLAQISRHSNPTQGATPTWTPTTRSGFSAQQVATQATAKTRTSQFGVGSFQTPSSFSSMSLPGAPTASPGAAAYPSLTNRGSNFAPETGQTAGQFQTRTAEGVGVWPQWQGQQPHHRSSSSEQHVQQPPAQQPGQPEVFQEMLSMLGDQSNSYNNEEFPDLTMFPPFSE

B1: hPGK1 5'-FS (dsDNA)
DNA 1: GTGAGACGTGCGGCTTCCGTTTG
DNA 2: CAAACGGAAGCCGCACGTCTCAC
On to B1, for which, in series [1], the binding result is given as “binds”.

B2: hEPO 5'-FS (dsDNA)
DNA 1: GGGGCTGCTGCAGACGTGCGTGTG
DNA 2: CACACGCACGTCTGCAGCAGCCCC
For the molecule B2, the binding result in series [1] is “binds”.

B3: hEPO 3'-FS (dsDNA)
DNA 1: GCCCTACGTGCTGTCTCACACAGCCTGTCTGA
DNA 2: TCAGACAGGCTGTGTGAGACAGCACGTAGGGC
Turning to B3, in series [2], the binding result is given as “binds”.

B4: hPGK1 5'-UT (dsDNA)
DNA 1: CTGCCGACGTGCGCTCCGGAG
DNA 2: CTCCGGAGCGCACGTCGGCAG
For B4, the binding result in series [1] is “binds”.

B5: W18 (dsDNA)
DNA 1: GATCGCCCTACGTGCTGTCTCA
DNA 2: TGAGACAGCACGTAGGGCGATC
Turning to B5, the binding result in series [3] was “binds”.

B6: hALDA IVS-4 (dsDNA)
DNA 1: CTTCACGTGCGGGGACCAGGGACCGT
DNA 2: ACGGTCCCTGGTCCCCGCACGTGAAG
B6: the binding result in series [1] is on record as “binds”.

B7: hENO1 5'-FS (dsDNA)
DNA 1: GGCCACGTGCGCCGCCTGCGCCTGCG
DNA 2: CGCAGGCGCAGGCGGCGCACGTGGCC
As for B7, in series [4], the binding result is reported as “binds”.

B8: M18 (dsDNA)
DNA 1: GATCGCCCTAAAAGCTGTCTCA
DNA 2: TGAGACAGCTTTTAGGGCGATC
On to B8, for which the binding result in series [5] is on record as “no binding”.

B9: mLDHA 5'-FS (dsDNA)
DNA 1: GTGGGAGCCCAGCGGACGTGCGGGAA
DNA 2: TTCCCGCACGTCCGCTGGGCTCCCAC
As for B9, in series [1], the binding result was “binds”.

B10: mPFKL IVS-1 (dsDNA)
DNA 1: CCGGGTAGCTGGCGTACGTGCTGCAG
DNA 2: CTGCAGCACGTACGCCAGCTACCCGG
Turning to B10, the binding result in series [1] is listed as “binds”.
